# Assay results taken from patent US20200291121A1 (JOINT STOCK COMPANY BIOCAD, published 2020).
# T1: mouse IL-5Rα, recombinant extracellular domain (mouse, UniProt P21183 18-339)
# T1 construct: extracellular domain; also called animal IL-5Rα
# T1 sequence (looked up): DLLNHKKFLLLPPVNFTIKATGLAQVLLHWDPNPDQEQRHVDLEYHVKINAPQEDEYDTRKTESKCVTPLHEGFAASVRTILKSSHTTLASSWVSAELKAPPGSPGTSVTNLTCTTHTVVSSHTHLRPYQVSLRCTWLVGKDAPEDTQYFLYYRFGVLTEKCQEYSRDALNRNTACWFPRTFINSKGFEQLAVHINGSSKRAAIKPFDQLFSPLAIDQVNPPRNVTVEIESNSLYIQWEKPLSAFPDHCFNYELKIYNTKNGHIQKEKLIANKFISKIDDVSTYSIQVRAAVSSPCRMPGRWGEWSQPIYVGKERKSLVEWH
# T2: cynomolgus monkey IL-5Rα, recombinant extracellular domain (cynomolgus monkey, UniProt C3VEW9 21-342)
# T2 construct: extracellular domain; also called macaque IL-5Ra; cynomolgus monkey antigen (IL-5Rα)
# T2 sequence: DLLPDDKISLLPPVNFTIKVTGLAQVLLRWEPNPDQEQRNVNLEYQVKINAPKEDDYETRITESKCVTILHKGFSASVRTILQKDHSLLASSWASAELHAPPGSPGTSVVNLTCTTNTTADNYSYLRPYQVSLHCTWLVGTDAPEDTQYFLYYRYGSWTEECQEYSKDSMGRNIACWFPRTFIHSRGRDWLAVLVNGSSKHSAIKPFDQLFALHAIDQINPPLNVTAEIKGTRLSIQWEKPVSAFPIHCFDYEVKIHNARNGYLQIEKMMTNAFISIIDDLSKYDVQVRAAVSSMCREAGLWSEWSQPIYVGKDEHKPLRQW
# T3: human IL-5Rα (interleukin 5 receptor α-chain), recombinant extracellular domain (human, UniProt Q01344 21-342)
# T3 construct: extracellular domain; also called IL-5Ra; human antigen; not shown: C-terminal tag (EPEA, Fc or H6F)
# T3 sequence (looked up): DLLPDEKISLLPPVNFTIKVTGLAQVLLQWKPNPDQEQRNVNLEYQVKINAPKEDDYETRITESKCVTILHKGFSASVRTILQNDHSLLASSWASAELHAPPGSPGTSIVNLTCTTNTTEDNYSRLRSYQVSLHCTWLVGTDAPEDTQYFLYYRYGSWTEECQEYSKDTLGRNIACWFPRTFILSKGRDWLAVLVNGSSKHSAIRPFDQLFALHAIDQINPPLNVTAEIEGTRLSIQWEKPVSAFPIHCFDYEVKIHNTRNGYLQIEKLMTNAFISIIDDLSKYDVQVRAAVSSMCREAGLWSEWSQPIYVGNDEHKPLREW
# B1: BCD133-03-020 (antibody, human IgG1, kappa)
# heavy: not shown
# light: QAGLTQPPSVSAAPGQRVTISCSGSRSNIGSGYDVHWYQQVPGTAPKLLIFDDNNRPSGVPDRFSGSKSGTSASLAITGLQAEDEADYYCQSYDSSLSGHVVFGGGTKLTVLRTVAAPSVFIFPPSDEQLKSGTASVVCLLNNFYPREAKVQWKVDNALQSGNSQESVTEQDSKDSTYSLSSTLTLSKADYEKHKVYACEVTHQGLSSPVTKSFNRGEC
# B2: BCD133-03-002 (antibody, human IgG1, kappa)
# heavy: not shown
# light: B1 light
# B3: BCD133-03-021 (antibody, human IgG1, kappa, V domains shown)
# VH: QVQLQESGGGLVQPGGSLRLSCAASGFTFSNYAMSWVRQAPGKGLEWVSAINSGGKSTNYADSVKGRFTISRDNAKNTLYLQMNSLRAEDTAVYYCADYATNYGVPYFGSWGQGTMVTVSS
# VL: QSVLTQPPSVSAAPGQRVTISCSGSRSNIGSGYDVHWYQQLPGTAPKLLIYDDNNRPSGVPDRFSGSKSGTSASLAITGLQAEDEADYYCQSYDSSLSGHVVFGGGTKLTVLR
# Target: T1, mouse IL-5Rα, recombinant extracellular …
# Experiment: BLI (Octet RED 384), antibody immobilised on AR2G sensors, antigen in solution
row,Binder,binding result
1,B1,no binding
2,B2,no binding
3,B3,no binding

# Target: IL-5Rα stably expressed on CHO-IL-5R cells
# Experiment: cell-based or functional assay
# Chain of IL-5Rα stably expressed on CHO-IL-5R cells (Q01344 whole entry): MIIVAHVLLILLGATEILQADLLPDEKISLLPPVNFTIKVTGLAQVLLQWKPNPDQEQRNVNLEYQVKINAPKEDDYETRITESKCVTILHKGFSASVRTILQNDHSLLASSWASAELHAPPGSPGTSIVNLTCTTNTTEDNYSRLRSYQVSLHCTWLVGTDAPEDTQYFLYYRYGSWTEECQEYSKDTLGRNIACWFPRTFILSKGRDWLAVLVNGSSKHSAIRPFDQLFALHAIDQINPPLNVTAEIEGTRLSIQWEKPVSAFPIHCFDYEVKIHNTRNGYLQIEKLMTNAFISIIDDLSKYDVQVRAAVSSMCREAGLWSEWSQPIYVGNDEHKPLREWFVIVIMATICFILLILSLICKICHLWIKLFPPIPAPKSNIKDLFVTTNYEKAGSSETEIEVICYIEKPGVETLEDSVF
row,Binder,"ADCC efficacy (EC50) on CHO-IL-5R cells with PBMC, relative to Benralizumab"
1,B1,1.6 times (against Benralizumab)
2,B2,1.6 times (against Benralizumab)
3,B3,1.6 times (against Benralizumab)

# Target: T2, cynomolgus monkey IL-5Rα, recombinant …
# Experiment: BLI (Octet RED 384), antibody immobilised on AR2G sensors, cynomolgus IL-5Rα in solution, 30 °C, 1:1 global model
# Method: (§1) Experimental study of binding affinity of antibodies to animal IL-5Rα antigen was performed on Forte Bio Octert RED 384. Antibodies at a concentration of 20 μg/ml were immobilized on the surface of AR2G sensors (Forte Bio) according to a standard protocol and manufacturer's instructions. Analysis was conducted at 30° C. using PBS comprising 0.1% Tween 20 and 0.1% BSA as a working buffer. After baseline recording, the sensors were immersed into wells containing antigen solution (animal IL-5Rα) for 300 seconds, where the complex was associated. Complex dissociation in buffer solution was then detected for 600 seconds.
# (§2) Binding curves, after subtracting a reference signal, were analyzed using Octet Data Analysis (Version 9.0) software in accordance with the standard procedure and using 1:1 Global interaction model. Anti-IL-5Rα antibodies specifically bind to cynomolgus monkey antigen. Table B. FIG. 16,17,18.
row,Binder,Kd
1,B1,12.2 nM
2,B2,5.53 nM
3,B3,16.8 nM

# Target: T3, human IL-5Rα (interleukin 5 receptor …)
# Experiment: BLI (Octet RED 384), human IL-5Rα immobilised on AR2G sensors, full-length antibody in solution, 30 °C, 1:1 global model
# Method: as §1, with “to human” for “to animal”, “384. Human IL-5Rα” for “384. Antibodies”, “μg/ml was” for “μg/ml were”, “sensors (ForteBio)” for “sensors (Forte Bio)”, “containing antibody” for “containing antigen”, “solution” for “solution (animal IL-5Rα)”
# as §2, with “human antigen with high affinity.” for “cynomolgus monkey antigen.”, “A (FIG. 11, 12, 13)” for “B. FIG. 16,17,18.”
row,Binder,Kd
1,B1,0.667 nM
2,B2,0.527 nM
3,B3,0.0224 nM
